Data taken from patent US20240002497A1.

Key:
[1] = target: huNav1.5-β1-β2-β3 (human) (UniProt Q14524); experiment: binding FACS, HEK Flp-In
[2] = target: huNav157chim14-β1-β2-β3 (human); experiment: binding FACS, HEK Flp-In
[3] = target: huNav1.5-β1-β2-β3 (human) (UniProt Q14524); experiment: FACS, CHO Flp-In, competitor 1 µM IRR00092
[4] = target: huNav1.7α + β1-β2-β3 (human) (UniProt Q15858); experiment: FACS, CHO Flp-In, competitor 1 µM IRR00092
[5] = target: rhNav1.7α + β1-β2-β3 (rhesus monkey); experiment: FACS, CHO Flp-In, competitor 1 µM IRR00092
[6] = target: huNav1.5-β1-β2-β3 (human) (UniProt Q14524); experiment: FACS, CHO Flp-In, competitor 1 µM F010300703
[7] = target: rhNav1.7α + β1-β2-β3 (rhesus monkey); experiment: FACS, CHO Flp-In, competitor 1 µM F010300703
[8] = target: huNav1.5-β1-β2-β3 (human) (UniProt Q14524); experiment: binding FACS, CHO Flp-In, periplasmic extract
[9] = target: huNav1.7α + β1-β2-β3 (human) (UniProt Q15858); experiment: binding FACS, CHO Flp-In, periplasmic extract
[10] = target: huNav1.7α + β1 (human) (UniProt Q15858); experiment: cell-based or functional assay
[11] = target: rhNav1.7α + β1-β2-β3 (rhesus monkey); experiment: cell-based or functional assay
[12] = target: huNav1.7α + β1-β2-β3 (human) (UniProt Q15858); experiment: competition FACS vs EC25 of 275B05(N93R), CHO FlpIn
[13] = target: rhNav1.7α + β1-β2-β3 (rhesus monkey); experiment: as above
[14] = target: huNav1.7α + β1-β2-β3 (human) (UniProt Q15858); experiment: competition FACS IC50 with 50 µM human SA against without
[15] = target: rhNav1.7α + β1-β2-β3 (rhesus monkey); experiment: as above
[16] = target: huNav1.7α + β1-β2-β3 (human) (UniProt Q15858); experiment: competition FACS vs EC25 of 275B05(N93R), CHO FlpIn, + 50 µM human SA
[17] = target: rhNav1.7α + β1-β2-β3 (rhesus monkey); experiment: as above
[18] = target: rhNav1.7α + β1-β2-β3 (rhesus Nav1.7α co-expressed with Navβ1, Navβ2 and Navβ3) (rhesus monkey); experiment: FACS, periplasmic extract, CHO Flp-In cells; SD MFI 13
[19] = target: muNav1.7α (murine Nav1.7α) (murine) (UniProt Q62205); experiment: FACS, periplasmic extract, HEK Jmp-In cells; SD MFI 24
[20] = target: rhNav1.7α + β1-β2-β3 (rhesus Nav1.7α co-expressed with Navβ1, Navβ2 and Navβ3) (rhesus monkey); experiment: FACS, periplasmic extract, CHO Flp-In cells; SD MFI 16
[21] = target: rhNav1.7α + β1-β2-β3 (rhesus Nav1.7α co-expressed with Navβ1, Navβ2 and Navβ3) (rhesus monkey); experiment: FACS, periplasmic extract, CHO Flp-In cells; SD MFI 18
[22] = target: muNav1.7α (murine Nav1.7α) (murine) (UniProt Q62205); experiment: FACS, periplasmic extract, HEK Jmp-In cells; SD MFI 175
[23] = target: rhNav1.7α + β1-β2-β3 (rhesus Nav1.7α co-expressed with Navβ1, Navβ2 and Navβ3) (rhesus monkey); experiment: FACS, periplasmic extract, CHO Flp-In cells; SD MFI 15
[24] = target: rhNav1.7α + β1-β2-β3 (rhesus Nav1.7α co-expressed with Navβ1, Navβ2 and Navβ3) (rhesus monkey); experiment: FACS, periplasmic extract, CHO Flp-In cells; SD MFI 49
[25] = target: rhNav1.7α + β1-β2-β3 (rhesus Nav1.7α co-expressed with Navβ1, Navβ2 and Navβ3) (rhesus monkey); experiment: FACS, periplasmic extract, CHO Flp-In cells; SD MFI 34
[26] = target: rhNav1.7α + β1-β2-β3 (rhesus Nav1.7α co-expressed with Navβ1, Navβ2 and Navβ3) (rhesus monkey); experiment: FACS, periplasmic extract, CHO Flp-In cells; SD MFI 53

B1: F010300702 (bispecific antibody, V domains shown, not shown: small tags and cut ends)
VH: EVQLVESGGGLVQPGGSLRLSCAASGSIFNINSMAWYRRAPGKQRELVASSTNGGSTNYADSVKGRFTISRDNAKRVYLQMNSLTPEDTAVYYCRALLQPSIYDISRTYWGQGTLVTVSS
MFI [1]: 946 MFI
MFI [2]: 15400 MFI
MFI [3]: 684 MFI
MFI [4]: 4120 MFI
MFI [5]: 5170 MFI
MFI [6]: 653 MFI
MFI [7]: 721 MFI
MFI [8]: 662 MFI
MFI [9]: 1570 MFI

B2: F010301555 (bispecific antibody, part only; not given: Anti-albumin building block, part only)
chain, part: DVQLVESGGGLVQPGGSLRLSCAASGPVFNINSMAWYRRAPGKQRELVAYSTPGWDWNYADSVKGRFTISRDNAKRVYLQMNSLTPEDTAVYYCRWLLQPSIYDISRTYWGQGTLVTVSSGGGGSGGGS
Human SA ratio of QPatch IC50 [10]: 7
QPatch electrophysiology IC50 [M], HEK cells [10]: 4.7e-08 M
QPatch electrophysiology IC50 [M], HEK cells, + 10 µM human SA [10]: 3.4e-07 M
Human SA ratio of QPatch IC50 [11]: 7
QPatch electrophysiology IC50 [M], HEK cells [11]: 3.5e-08 M
QPatch electrophysiology IC50 [M], HEK cells, + 10 µM human SA [11]: 2.6e-07 M
IC50 [12]: 140 nM
IC50 [13]: 92 nM
Human SA ratio [14]: 8
Human SA ratio [15]: 10
IC50 [16]: 1200 nM
IC50 [17]: 880 nM

B3: F0103464B09 T100I library variant (VHH, name in Kabat numbering)
VHH: EVQLVESGGGLVQPGGSLRLSCATTSRAFIRDVFTGWYRRVPGKERELVARIYNGGNTNYADFAKGRFSISRDNAKKMVTLRMSNLKPEDTGVYYCLFSGTINIGREYRSGDYWGQGTLVTVSS
Mean MFI [18]: 541 MFI
Mean MFI [19]: 1310 MFI

B4: F0103464B09 T100Y library variant (VHH, name in Kabat numbering)
VHH: EVQLVESGGGLVQPGGSLRLSCATTSRAFIRDVFTGWYRRVPGKERELVARIYNGGNTNYADFAKGRFSISRDNAKKMVTLRMSNLKPEDTGVYYCLFSGTINYGREYRSGDYWGQGTLVTVSS
Mean MFI [20]: 526 MFI

B5: F0103464B09 T100L library variant (VHH, name in Kabat numbering)
VHH: EVQLVESGGGLVQPGGSLRLSCATTSRAFIRDVFTGWYRRVPGKERELVARIYNGGNTNYADFAKGRFSISRDNAKKMVTLRMSNLKPEDTGVYYCLFSGTINLGREYRSGDYWGQGTLVTVSS
Mean MFI [21]: 531 MFI
Mean MFI [22]: 1250 MFI

B6: F0103464B09 T100K library variant (VHH, name in Kabat numbering)
VHH: EVQLVESGGGLVQPGGSLRLSCATTSRAFIRDVFTGWYRRVPGKERELVARIYNGGNTNYADFAKGRFSISRDNAKKMVTLRMSNLKPEDTGVYYCLFSGTINKGREYRSGDYWGQGTLVTVSS
Mean MFI [23]: 583 MFI

B7: F0103464B09 T100R library variant (VHH, name in Kabat numbering)
VHH: EVQLVESGGGLVQPGGSLRLSCATTSRAFIRDVFTGWYRRVPGKERELVARIYNGGNTNYADFAKGRFSISRDNAKKMVTLRMSNLKPEDTGVYYCLFSGTINRGREYRSGDYWGQGTLVTVSS
Mean MFI [24]: 626 MFI

B8: F0103464B09 T100M library variant (VHH, name in Kabat numbering)
VHH: EVQLVESGGGLVQPGGSLRLSCATTSRAFIRDVFTGWYRRVPGKERELVARIYNGGNTNYADFAKGRFSISRDNAKKMVTLRMSNLKPEDTGVYYCLFSGTINMGREYRSGDYWGQGTLVTVSS
Mean MFI [25]: 585 MFI

B9: F0103464B09 T100Q library variant (VHH, name in Kabat numbering)
VHH: EVQLVESGGGLVQPGGSLRLSCATTSRAFIRDVFTGWYRRVPGKERELVARIYNGGNTNYADFAKGRFSISRDNAKKMVTLRMSNLKPEDTGVYYCLFSGTINQGREYRSGDYWGQGTLVTVSS
Mean MFI [26]: 650 MFI
